Measurements: PMC4070910, “Cathepsin S Signals via PAR2 and Generates a Novel Tethered Ligand Receptor Agonist” (PLoS ONE, 2014)
Entries after “also recorded” stand apart in the source; their conditions may differ.

Legend:
human PAR2 = experiment: IP1 (IP-One HTRF) assay in PAR2-transfected HeLa cells; type: cell-based; details: 1 hour, 37°C, KVDGTS 100 µM, SLIGRL 10 µM, cathepsin S 1 µM
Protocol: (§1) To determine the effect of PAR2 activation on Gq stimulation, we measured IP1, a downstream metabolite of IP3, using the IP-One HTRF assay from Cis Bio, Medford, MA. HeLa cells were transfected with salmon sperm DNA or PAR2 cDNA as described above, plated in 10 cm culture dishes and incubated at 37°C with 5% CO2. After 24 hours, the cells were trypsinized, counted, plated into 96-well plates at 80,000 cells/well and incubated for another 24 hours. The medium was replaced with a stimulation buffer containing LiCl, per the instructions of the manufacturer. Ligands, including cathepsin S (1 µM), KVDGTS (100 µM) and SLIGRL (10 µM) were added to wells and incubated at 37°C for 1 hour and IP1 levels determined. This assay was performed on multiple wells containing each ligand on three occasions. Error bars represent SEM.

[1] = tested on: salmon sperm transfected HeLa cells; experiment: IP1 (IP-One HTRF) assay in salmon sperm DNA-transfected HeLa cells; type: cell-based; details: cathepsin S 1 µM, 1 hour, 37°C
Protocol: as §1

[2] = tested on: luciferase-PAR2 (native PAR2); experiment: Gaussia luciferase release, luciferase-PAR2; type: cell-based, human; details: cathepsin S 2 µM, 10 minutes, room temperature, triplicate
Excerpt: Gaussia luciferase cDNA was cloned, without its termination codon, into pcDNA3.1(−) as an Xho I-EcoR I fragment. Human PAR2 cDNA and its mutants, M1, M2 and M3, were generated using PCR primers designed to start after the signal sequence and end with a termination codon: […] and […] . The PCR amplified cDNAs were cloned into EcoR I and Hind III sites C-terminal to Gaussia luciferase cDNA. The resulting plasmids were called pGLPAR2, pGLPAR2M1, pGLPAR2M2 and pGLPAR2M3.
The plasmid DNAs pGLPAR2, pGLPAR2M1, pGLPAR2M2 and pGLPAR2M3 (10 µg of each) were transfected into 2×10^6 HeLa cells as described above and plated into 10 cm dishes. HeLa cells transfected with salmon sperm were used as controls. Forty-eight hours after transfection, the cells were washed twice with PBS, scraped and pelleted. Cells were scraped in order to eliminate the use of trypsin, which could activate PARs, and allowed for the luminescence assay to be performed in a small volume. Pelleted cells were resuspended into 200 µl PBS, and 100 µl of each was incubated with cathepsin S at a final concentration 2 µM for 10 minutes at room temperature. Untreated cells were processed by the same methods for a negative control. […] Luminescence assays were performed in triplicate on 50 µl of the supernatants according to the instructions of the manufacturer (New England Biolabs, Ipswich, MA).

[3] = tested on: PAR2M1 (leucine38 to alanine); experiment: Calcium imaging in HeLa cells transfected with PAR2M1; type: cell-based, human; details: cathepsin S 2 µM, KVDGTS 100 µM
Protocol: (§2) Human PAR2 cDNA was cloned as an Xho I-Hind III fragment (1206 bp) into pcDNA3.1(−). 10 µg of DNA were diluted into 0.5 ml of DMEM and mixed with 0.5 ml of DMEM containing 10 µl of Lipofectamine 2000 transfection reagent and incubated at room temperature for 20 minutes. HeLa cells were grown to confluence, trypsinized and 1×10^6 cells were pelleted in a 15 ml tube by centrifugation at 1000 rpm for 5 minutes. The DMEM-Lipofectamine 2000-DNA mixture (1 ml) was added to the cell pellet, resuspended gently and incubated at room temperature for 20 minutes. Four ml of complete DMEM with 10% FBS were added to the tube, mixed by inverting the tube several times, plated into a 96-well glass bottom plate at 20,000 cells/well, and placed in a 37°C CO2 incubator. HeLa cells transfected with vector alone or salmon sperm DNA (shown in the figures) were plated as a control. The medium was aspirated two days after transfection. Fura-2 was used as a ratiometric calcium-sensitive indicator as follows. […]
(§3) Imaging was performed using a Zeiss Axiovert 200 M microscope platform equipped with a flipping filter wheel for ratiometric imaging. […] The software later analyzed all images taken during each excitation period. Typically, ratiometric changes were measured in 10–20 cells in each image. An average of the fluorescence of the cells in each image was calculated and plotted against time in seconds. […]

[4] = tested on: PAR2M2 (glycine40 to alanine); experiment: Calcium imaging in HeLa cells transfected with PAR2M2; type: cell-based, human; details: cathepsin S 2 µM, KVDGTS 100 µM
Protocol: as §2, §3

[5] = tested on: PAR2M3 (leucine38 and glycine40 to alanines); experiment: Calcium imaging in HeLa cells transfected with PAR2M3; type: cell-based, human; details: cathepsin S 2 µM, KVDGTS 100 µM
Protocol: as §2, §3

B1: cathepsin S: Recombinant human cathepsin S, cysteine protease, expressed in E.coli, refolded and activated (protein, UniProt P25774 115-331, looked up)
Cathepsin S: LPDSVDWREKGCVTEVKYQGSCGACWAFSAVGALEAQLKLKTGKLVSLSAQNLVDCSTEKYGNKGCNGGFMTTAFQYIIDNKGIDSDASYPYKAMDQKCQYDSKYRAATCSKYTELPYGREDVLKEAVANKGPVSVGVDARHPSFFLYRSGVYYEPSCTQNVNHGVLVVGYGDLNGKEYWLVKNSWGHNFGEEGYIRMARNKGNHCGIASFPSYPEI
- IP1 level (human PAR2; KVDGTS and SLIGRL after subtracting baseline values, cathepsin S 'in this particular experiment'): 122 nM
- IP1 generation (in words) (human PAR2; three occasions): consistently generated higher levels of IP1 than either SLIGRL or KVDGTS
- IP1 level in salmon sperm transfected cells (in words) [1]: no effect above baseline IP1 levels
- receptor cleavage, luciferase luminescence (in words) [2]: cleaved the native and PAR2M1 receptors
- calcium response on PAR2M1 (in words) [3]: induced normal calcium responses; also recorded: able to stimulate native PAR2 and PAR2M1
- calcium response on PAR2M2 (in words) [4]: did not induce calcium responses; also recorded: not PAR2M2 or PAR2M3
- calcium response on PAR2M3 (in words) [5]: did not induce calcium responses; also recorded: not PAR2M2 or PAR2M3
